Test results taken from US8435548 (BIO FD AND C, dated 2013).
Where no end group is shown, it is not given here. The star is where a group is joined. Galloyl = O=C(c1cc(O)c(O)c(O)c1)*

Target: mushroom tyrosinase (1,500 units/ml, Sigma) (mushroom)
Experiment: cell-based or functional assay

Row | Binder | Inhibition (%) of tyrosinase activity (absorbance at 490 nm, L-tyrosine substrate, compound at 100 µM)
1 | Galloyl-Glu-Cys-Gly [Galloyl-tripeptide (glutamyl-cysteinyl-glycine)] | 34%
2 | Galloyl-YGGFLRKYPK [Galloyl-decapeptide (tyrosyl-glycyl-glycyl-phenylalanyl-leucyl-arginyl-lysyl-tyrosyl-prolyl-lysine)] | 5%
3 | Galloyl-KECG [Galloyl-tetrapeptide (lysyl-glutamyl-cysteinyl-glycine)] | 40%
4 | KECG (also: two galloyl groups, attachment sites shown only in formula IV) [Digalloyl-tetrapeptide (lysyl-glutamyl-cysteinyl-glycine)] | 52%
5 | KYHY (also: two galloyl groups, attachment sites not given here) [Digalloyl-tetrapeptide (lysyl-tyrosyl-histidyl-tyrosine)] | 21%
6 | Galloyl-Tyr-His-Tyr [Galloyl-tripeptide (tyrosyl-histidyl-tyrosine)] | 15%
